The text below walks through data of the supplement of paper PMC10567573.

± gives the standard deviation.

A short description of this data set: protein stability index of a GFP-peptide fusion (GPS, HEK-293T) (PSI 1-6); higher = more stable.
Setting [1] is: treatment: DMSO, c terminus: a fixed tail appended.
Setting [2] is: treatment: MLN4924 1 uM, 8 h, c terminus: a fixed tail appended.
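Further: 24-mer peptide tiles fused after GFP, lentivirally expressed, FACS-sorted into six equal bins by GFP/DsRed ratio, decoded by Illumina sequencing, PSI is the read-weighted mean bin number.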

LIKALKIFQEKHVNLLHIESRKSK [TPH1] returned a protein stability index under setting [1] of 2.28 ± 0.12 and a protein stability index under setting [2] of 2.22 ± 0.23.

In turn, LIKKYSDHLENVSKLVESGIQFMD [TRIM55] came in with a protein stability index under setting [1] of 2.27 ± 0.18 and a protein stability index under setting [2] of 2.66 ± 0.2.

As for LKAKKVWYDMFRDAAAILLDEQNK [ZMAT5], the protein stability index stood at 2.38 ± 0.1 under setting [1] and 2.26 ± 0.17 under setting [2].

LKFLEENKIKVMHKQLLLFHNAVS [ARFIP2]: the protein stability index reads like this: under setting [1], 2.41 ± 0.44; under setting [2], 2.17 ± 0.26.

For LKLYYRRLFPYSQYYRWLNYGGVI [PRIM1], the protein stability index by setting is: under setting [1], 2.07 ± 0.7; under setting [2], 2.6 ± 1.2.

For the sequence LKSKAEAEALYQTKFQELQLAAGR [KRT71], the protein stability index runs as follows: under setting [1], 3.73 ± 0.22; under setting [2], 3.85 ± 0.41.

As for LKYENELALRQGVEADINGLRRVL [KRT15], the protein stability index runs as follows: under setting [1], 3.35 ± 0.23; under setting [2], 3.6 ± 0.18.

With LLDCFGIPVLMALSWFILHARYRV [SLC35F2], the protein stability index under setting [1] was 3.07 ± 0.33 and the protein stability index under setting [2] came out at 3.64 ± 0.27.

Consider LLESSSSYKNLTLKFHKLVNVTIH [MCOLN1], for which the protein stability index is, setting by setting: under setting [1], 2.58 ± 0.41; under setting [2], 2.33 ± 0.55.

In the case of LLKALVSELSEHLRDPLTSLSHTE [FCHSD1], the protein stability index by setting is: under setting [1], 2.44 ± 0.42; under setting [2], 2.2 ± 0.17.

For LLLEPGSLYILRGSARYDFSHEIL [ALKBH7], the protein stability index was determined as 2.58 ± 1.2 under setting [1] and 2.58 ± 1.3 under setting [2].

The sequence LLQHLLEACGRCEEVPEAYVDIHT [PYCR3] came in with a protein stability index under setting [1] of 2.1 ± 0.48 and a protein stability index under setting [2] of 2.42 ± 0.66.

With LLREEEYVAPPRGPLPTLQVVPL [TRAF3IP2], the protein stability index amounted to 2.35 ± 0.3 (treatment: DMSO, c terminus: native) and 2.05 ± 0.33 (treatment: MLN4924 1 uM, 8 h, c terminus: native).

On to LLSLDPVQDKTPLYSQLLQAYKWS [MED27], for which the protein stability index is 2.04 ± 0.22 under setting [1] and 1.97 ± 0.2 under setting [2].

In turn, LLYWGIAEDHLDGCCKRRYLQKIE [KCNG1] yielded a protein stability index under setting [1] of 1.95 ± 0.33 and a protein stability index under setting [2] of 2.3 ± 0.12.

Regarding LMAEGLLPAVKVFLDWLRTNPDLI [SMG5], the protein stability index was 2.57 ± 0.38 under setting [1] and 2.6 ± 0.56 under setting [2].

Take LMAPTCVFLASKVEEFGVVSNTRL [CCNC]: the protein stability index came out at 2.2 ± 0.34 under setting [1] and 2.21 ± 0.14 under setting [2].

Take LMILRRVVNESTVCLMGHERRQTL [TENT5C]: the protein stability index amounted to 2.33 ± 0.18 under setting [1] and 2.34 ± 0.32 under setting [2].

In the case of LNELPVPMVARYIRINPQSWFDNG [CPXM2], the protein stability index runs as follows: under setting [1], 2.21 ± 0.42; under setting [2], 2.43 ± 0.28.

LNMAKKSVDIVSSHWDLNHTHPSA [PLD5]: the protein stability index came to 3.1 ± 0.3 under setting [1] and 3.2 ± 0.28 under setting [2].

For LPGNEEFQVVKDAVLDCLLDFLPK [TENT5D], the protein stability index under setting [1] turned out to be 2.32 ± 0.39 and the protein stability index under setting [2] worked out at 2.4 ± 0.21.

As for LPLERDAESFLLKSPIAPCSLDKR [CDC25B], the protein stability index by setting is: under setting [1], 4.35 ± 0.18; under setting [2], 4.35 ± 0.15.

Consider LPPYPPYFEGAPFPHPLWLRDTYK [PWWP2B], for which the protein stability index by setting is: under setting [1], 2.54 ± 0.39; under setting [2], 2.5 ± 0.12.

LQPLSKPLSSQPQAIVTEDKTDIS [MLH1]: the protein stability index is, setting by setting: under setting [1], 5.31 ± 0.19; under setting [2], 5.19 ± 0.14.

Regarding LQTPLDIRLKESINCQLSDPSSTK [TRIM14], the protein stability index stood at 4.62 ± 0.29 under setting [1] and 4.55 ± 0.34 under setting [2].

LRKRKEIREDRDRARLDSMVLLIM [DLC1]: the protein stability index reads like this: under setting [1], 2.08 ± 0.51; under setting [2], 2.17 ± 0.34.

Sequence LRLRKERVSDVQKVLQGGEQEIQF [PKD2L1] gave a protein stability index under setting [1] of 3.74 ± 0.17 and a protein stability index under setting [2] of 3.77 ± 0.34.

Take LRNNQISHKGAEELALALKGNTTL [LRRC45]: the protein stability index under setting [1] was determined as 3.92 ± 0.14 and the protein stability index under setting [2] came to 4.05 ± 0.21.

Consider LRSRYSVASFKFDAGEVSYLPRDF [MYORG], for which the protein stability index under setting [1] is 2.37 ± 0.12 and the protein stability index under setting [2] was found to be 2.42 ± 0.37.

Take LSEPDPSHTLEERVVHWYFKLLDK [SMOC2]: the protein stability index came out at 2.61 ± 0.46 under setting [1] and 2.84 ± 0.29 under setting [2].

Consider LSFQEELLYWGIAEDHLDGCCKRR [KCNG1], for which the protein stability index runs as follows: under setting [1], 2.35 ± 0.36; under setting [2], 2.61 ± 0.26.

Take LSGATKKGTEKQTTSETQKSVQCG [NETO1]: the protein stability index is 5.17 ± 0.27 under setting [1] and 5.22 ± 0.24 under setting [2].

Consider LSLLELLELLLDASALTLVLGGRR [SCNN1D], for which the protein stability index by setting is: under setting [1], 2.99 ± 0.95; under setting [2], 2.32 ± 0.56.

LSLNMDNLQDTLEAASFLQILPVL [KLHL13]: the protein stability index came to 2.66 ± 0.52 under setting [1] and 2.72 ± 0.45 under setting [2].

As for LSNKNGKNVELKFVDSIRRQFEFS [TENT5C], the protein stability index turned out to be 2.56 ± 0.24 under setting [1] and 2.48 ± 0.42 under setting [2].

In the case of LTGLNYEAPKYHIPYWVAYYLALL [NSDHL], the protein stability index was determined as 2.71 ± 0.59 under setting [1] and 2.87 ± 0.48 under setting [2].

With LTKYPTDRDSIWKCLKFLGSRHPT [INTS4], the protein stability index came to 2.38 ± 0.19 under setting [1] and 2.39 ± 0.095 under setting [2].

As for LTLAQGAGEEDPSGMVTIITGLPL [SMG5], the protein stability index runs as follows: under setting [1], 2.98 ± 0.43; under setting [2], 2.76 ± 0.44.

Consider LTQPLQGGTPHCEPCQLPSESPGS [DNAAF3], for which the protein stability index runs as follows: under setting [1], 5.17 ± 0.2; under setting [2], 5.12 ± 0.12.

Sequence LTRHTKKTHSQELMKESLQTGDLL [PLAGL1] registered a protein stability index under setting [1] of 4.35 ± 0.28 and a protein stability index under setting [2] of 4.59 ± 0.12.

Turning to LTSLKDLYKSLKTLSAELVPWLNL [CEP70], the protein stability index is 3.15 ± 0.57 under setting [1] and 3.07 ± 0.42 under setting [2].

Turning to LVDEEEKVLIQKNLGPKSKVLILR [ADD1], the protein stability index is, setting by setting: under setting [1], 3.16 ± 0.5; under setting [2], 2.84 ± 0.25.

As to LVGKPKIFIIQACRGNQHDVPVIP [CASP6], the protein stability index by setting is: under setting [1], 2.56 ± 0.66; under setting [2], 2.1 ± 0.2.

For LVHTQEPGEWLELLLEPGSLYILR [ALKBH7], the protein stability index runs as follows: under setting [1], 2.38 ± 1; under setting [2], 2.23 ± 0.28.

Take LVRTLYKVQNECPGITRVYSIGRS [CPN1]: the protein stability index amounted to 2.27 ± 0.55 under setting [1] and 2.11 ± 0.14 under setting [2].

Take LVSPERAQPPDYTFPSGSGAHFPQ [PI4K2A]: the protein stability index runs as follows: under setting [1], 3.96 ± 0.3; under setting [2], 4.13 ± 0.25.

For LWARGTWTQATGLGCALLAAHAVV [SOAT2], the protein stability index runs as follows: under setting [1], 3.01 ± 0.11; under setting [2], 3.2 ± 1.6.

Turning to LWASQREKEVLRRERAVEWRERAV [ZBED2], the protein stability index runs as follows: under setting [1], 3.15 ± 0.44; under setting [2], 3.38 ± 0.11.

As for LYHRADVEKVLRRWVDEEWPKRER [EDARADD], the protein stability index reads like this: under setting [1], 2.87 ± 0.31; under setting [2], 2.94 ± 0.45.

Take LYQLEGNNQITCRNGQWSEPPKCL [CFHR2]: the protein stability index under setting [1] came out at 3.08 ± 0.29 and the protein stability index under setting [2] stood at 2.98 ± 0.18.

As for LYRDDVLIKPSRVVAILAAACLLQ [GMCL1], the protein stability index by setting is: under setting [1], 3.05 ± 0.84; under setting [2], 2.45 ± 0.18.

Consider LYRSRMNSLEMTPAVRQRVIEEAK [HMOX1], for which the protein stability index stood at 4.04 ± 0.21 under setting [1] and 4.06 ± 0.26 under setting [2].

With MAMQMQLEANADTSVEEESFGPQP [RAD51], the protein stability index is, setting by setting: under setting [1], 5.15 ± 0.25; under setting [2], 5.26 ± 0.13.

In turn, MARNPAAIDMFIIGATFTDWFTSY [FBXO3] gave a protein stability index under setting [1] of 3.1 ± 0.62 and a protein stability index under setting [2] of 2.84 ± 0.57.

Consider MARPLVPSSQKALLLELKGLQEEP [CDC34], for which the protein stability index is, setting by setting: under setting [1], 4.06 ± 0.13; under setting [2], 3.98 ± 0.33.

For the sequence MASPDDPLRADHMVKEPVEDTDPS [EDARADD], the protein stability index runs as follows: under setting [1], 5.52 ± 0.17; under setting [2], 5.63 ± 0.2.

In the case of MATESVDHELGRCTDSVVKYELMR [EHMT1], the protein stability index was 3.65 ± 0.29 under setting [1] and 3.69 ± 0.19 under setting [2].

With MATQADLMELDMAMEPDRKAAVSH [CTNNB1], the protein stability index worked out at 4.78 ± 0.19 under setting [1] and 4.95 ± 0.15 under setting [2].

As to MDDPKGDFITLYQMASQSSASHYK [M1AP], the protein stability index came to 3.27 ± 0.25 under setting [1] and 3.31 ± 0.22 under setting [2].

Take MEAGERIDASQLPHRVLETRGHAI [SMIM2]: the protein stability index stood at 4.19 ± 0.44 under setting [1] and 4.02 ± 0.6 under setting [2].

With MEAVLNELVSVEDLLKFEKKFQSE [FIS1], the protein stability index runs as follows: under setting [1], 3.69 ± 0.25; under setting [2], 3.65 ± 0.27.

Turning to MELQKGKGAAAAAAASGAAGGGGG [INTS3], the protein stability index is 5.19 ± 0.43 under setting [1] and 5.26 ± 0.36 under setting [2].

Regarding MEMTRPTPPHLTSAMAENILAAAC [NOL4L], the protein stability index reads like this: under setting [1], 3.38 ± 0.3; under setting [2], 3.18 ± 0.34.

Turning to MEQVHRGIKGLVRDSHGKGIPNAI [CPXM2], the protein stability index by setting is: under setting [1], 3.68 ± 0.56; under setting [2], 4.35 ± 0.17.

Take METHKELKPLLSPSSETTVTVELP [LYSMD4]: the protein stability index was determined as 4.77 ± 0.16 under setting [1] and 5.06 ± 0.083 under setting [2].

Take MGRKRLITDSYPVVKRREGPAGHS [POLD4]: the protein stability index was determined as 3.33 ± 0.32 under setting [1] and 3.2 ± 0.29 under setting [2].

With MKAAVDLKPTLTIIKTEKVDLELF [ETS1], the protein stability index came to 2.46 ± 0.35 under setting [1] and 2.55 ± 0.32 under setting [2].

Turning to MKQRIAEENIMKSNIDKKFSAHYD [FAM50A], the protein stability index by setting is: under setting [1], 3.85 ± 0.2; under setting [2], 3.97 ± 0.14.

Regarding MLCAASGNPDPEITWFKDFLPVDT [PTPRD], the protein stability index is, setting by setting: under setting [1], 2.95 ± 0.66; under setting [2], 3.23 ± 0.42.

With MLLGVPRLRQLKVRNDSCVVHEDF [PKD2L1], the protein stability index stood at 2.46 ± 0.33 under setting [1] and 2.52 ± 0.32 under setting [2].

As to MLVDGIDPNFKMEHQNKRSPLHAA [EHMT1], the protein stability index runs as follows: under setting [1], 3.41 ± 0.39; under setting [2], 3.67 ± 0.31.

MMTLLMKKDTLTEEETQFYISETV [STK38L]: the protein stability index reads like this: under setting [1], 3.16 ± 0.23; under setting [2], 3.3 ± 0.31.
